Values quoted from earlier work as cited in paper PMC3210452.
Read-outs that look alike come from different tables or passages of the source.

Key:
[1] = molecular target: P-type voltage-gated calcium channel (UniProt P54282)
[2] = molecular target: Q-type voltage-gated calcium channel (UniProt O00555)
[3] = molecular target: P-type voltage-gated calcium channel (UniProt P54282); remark: listed apart in the source

Sequence of UniProt P54282 (P54282 whole entry): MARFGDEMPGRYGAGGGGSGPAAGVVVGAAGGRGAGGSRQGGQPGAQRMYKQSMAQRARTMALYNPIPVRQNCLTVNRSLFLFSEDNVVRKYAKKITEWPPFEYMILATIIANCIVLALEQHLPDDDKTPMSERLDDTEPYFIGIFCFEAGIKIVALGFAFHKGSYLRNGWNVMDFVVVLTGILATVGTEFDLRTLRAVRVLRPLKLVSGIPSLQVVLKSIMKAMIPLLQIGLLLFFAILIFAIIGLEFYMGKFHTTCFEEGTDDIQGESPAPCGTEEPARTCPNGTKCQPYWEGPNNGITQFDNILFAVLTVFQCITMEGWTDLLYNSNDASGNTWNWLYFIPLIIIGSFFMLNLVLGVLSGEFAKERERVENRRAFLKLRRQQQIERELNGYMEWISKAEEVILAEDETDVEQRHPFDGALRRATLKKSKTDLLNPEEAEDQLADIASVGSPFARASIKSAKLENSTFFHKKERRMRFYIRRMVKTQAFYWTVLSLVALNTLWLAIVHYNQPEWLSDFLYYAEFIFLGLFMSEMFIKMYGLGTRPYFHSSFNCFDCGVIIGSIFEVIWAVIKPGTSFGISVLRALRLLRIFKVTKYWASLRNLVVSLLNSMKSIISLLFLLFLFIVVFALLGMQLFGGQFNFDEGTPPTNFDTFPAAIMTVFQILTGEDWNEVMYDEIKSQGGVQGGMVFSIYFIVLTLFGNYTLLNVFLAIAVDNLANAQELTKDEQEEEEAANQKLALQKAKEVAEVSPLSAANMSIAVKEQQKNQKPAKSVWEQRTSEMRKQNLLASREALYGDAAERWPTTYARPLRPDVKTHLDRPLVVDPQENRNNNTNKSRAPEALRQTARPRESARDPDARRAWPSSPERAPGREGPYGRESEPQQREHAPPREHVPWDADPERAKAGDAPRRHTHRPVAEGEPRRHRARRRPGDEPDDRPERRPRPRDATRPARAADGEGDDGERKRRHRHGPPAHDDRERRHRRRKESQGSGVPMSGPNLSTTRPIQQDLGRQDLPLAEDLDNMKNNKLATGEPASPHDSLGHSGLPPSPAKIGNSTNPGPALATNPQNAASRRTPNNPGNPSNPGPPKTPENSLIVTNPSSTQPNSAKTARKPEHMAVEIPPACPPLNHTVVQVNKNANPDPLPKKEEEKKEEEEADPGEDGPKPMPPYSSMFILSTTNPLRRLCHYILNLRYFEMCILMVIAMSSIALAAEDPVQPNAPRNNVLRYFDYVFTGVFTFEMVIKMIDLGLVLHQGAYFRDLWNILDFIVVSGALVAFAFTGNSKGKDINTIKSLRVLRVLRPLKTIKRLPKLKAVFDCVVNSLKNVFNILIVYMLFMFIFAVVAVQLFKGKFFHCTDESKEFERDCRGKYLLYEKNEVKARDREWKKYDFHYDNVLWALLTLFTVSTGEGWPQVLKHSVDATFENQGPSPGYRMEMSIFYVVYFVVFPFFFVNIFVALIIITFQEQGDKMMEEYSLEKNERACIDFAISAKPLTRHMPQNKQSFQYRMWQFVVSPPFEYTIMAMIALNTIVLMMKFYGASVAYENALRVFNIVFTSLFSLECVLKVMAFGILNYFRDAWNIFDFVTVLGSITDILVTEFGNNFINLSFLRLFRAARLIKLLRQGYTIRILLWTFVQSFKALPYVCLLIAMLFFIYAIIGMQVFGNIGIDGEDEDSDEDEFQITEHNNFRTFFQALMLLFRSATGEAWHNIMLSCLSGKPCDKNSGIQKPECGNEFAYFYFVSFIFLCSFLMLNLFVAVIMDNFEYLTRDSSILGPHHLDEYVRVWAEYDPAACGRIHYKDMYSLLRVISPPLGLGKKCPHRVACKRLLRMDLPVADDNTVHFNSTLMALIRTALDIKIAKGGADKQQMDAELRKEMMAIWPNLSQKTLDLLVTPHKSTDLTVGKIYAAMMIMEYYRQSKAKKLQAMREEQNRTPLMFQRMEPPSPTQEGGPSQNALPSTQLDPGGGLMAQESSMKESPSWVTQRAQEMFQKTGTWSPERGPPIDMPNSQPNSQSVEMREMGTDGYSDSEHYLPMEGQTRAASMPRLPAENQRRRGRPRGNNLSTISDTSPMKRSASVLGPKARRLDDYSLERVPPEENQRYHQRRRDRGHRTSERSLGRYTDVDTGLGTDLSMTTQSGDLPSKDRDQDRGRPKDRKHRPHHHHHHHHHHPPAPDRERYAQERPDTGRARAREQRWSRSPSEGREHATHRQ
Sequence of UniProt O00555 (O00555 whole entry): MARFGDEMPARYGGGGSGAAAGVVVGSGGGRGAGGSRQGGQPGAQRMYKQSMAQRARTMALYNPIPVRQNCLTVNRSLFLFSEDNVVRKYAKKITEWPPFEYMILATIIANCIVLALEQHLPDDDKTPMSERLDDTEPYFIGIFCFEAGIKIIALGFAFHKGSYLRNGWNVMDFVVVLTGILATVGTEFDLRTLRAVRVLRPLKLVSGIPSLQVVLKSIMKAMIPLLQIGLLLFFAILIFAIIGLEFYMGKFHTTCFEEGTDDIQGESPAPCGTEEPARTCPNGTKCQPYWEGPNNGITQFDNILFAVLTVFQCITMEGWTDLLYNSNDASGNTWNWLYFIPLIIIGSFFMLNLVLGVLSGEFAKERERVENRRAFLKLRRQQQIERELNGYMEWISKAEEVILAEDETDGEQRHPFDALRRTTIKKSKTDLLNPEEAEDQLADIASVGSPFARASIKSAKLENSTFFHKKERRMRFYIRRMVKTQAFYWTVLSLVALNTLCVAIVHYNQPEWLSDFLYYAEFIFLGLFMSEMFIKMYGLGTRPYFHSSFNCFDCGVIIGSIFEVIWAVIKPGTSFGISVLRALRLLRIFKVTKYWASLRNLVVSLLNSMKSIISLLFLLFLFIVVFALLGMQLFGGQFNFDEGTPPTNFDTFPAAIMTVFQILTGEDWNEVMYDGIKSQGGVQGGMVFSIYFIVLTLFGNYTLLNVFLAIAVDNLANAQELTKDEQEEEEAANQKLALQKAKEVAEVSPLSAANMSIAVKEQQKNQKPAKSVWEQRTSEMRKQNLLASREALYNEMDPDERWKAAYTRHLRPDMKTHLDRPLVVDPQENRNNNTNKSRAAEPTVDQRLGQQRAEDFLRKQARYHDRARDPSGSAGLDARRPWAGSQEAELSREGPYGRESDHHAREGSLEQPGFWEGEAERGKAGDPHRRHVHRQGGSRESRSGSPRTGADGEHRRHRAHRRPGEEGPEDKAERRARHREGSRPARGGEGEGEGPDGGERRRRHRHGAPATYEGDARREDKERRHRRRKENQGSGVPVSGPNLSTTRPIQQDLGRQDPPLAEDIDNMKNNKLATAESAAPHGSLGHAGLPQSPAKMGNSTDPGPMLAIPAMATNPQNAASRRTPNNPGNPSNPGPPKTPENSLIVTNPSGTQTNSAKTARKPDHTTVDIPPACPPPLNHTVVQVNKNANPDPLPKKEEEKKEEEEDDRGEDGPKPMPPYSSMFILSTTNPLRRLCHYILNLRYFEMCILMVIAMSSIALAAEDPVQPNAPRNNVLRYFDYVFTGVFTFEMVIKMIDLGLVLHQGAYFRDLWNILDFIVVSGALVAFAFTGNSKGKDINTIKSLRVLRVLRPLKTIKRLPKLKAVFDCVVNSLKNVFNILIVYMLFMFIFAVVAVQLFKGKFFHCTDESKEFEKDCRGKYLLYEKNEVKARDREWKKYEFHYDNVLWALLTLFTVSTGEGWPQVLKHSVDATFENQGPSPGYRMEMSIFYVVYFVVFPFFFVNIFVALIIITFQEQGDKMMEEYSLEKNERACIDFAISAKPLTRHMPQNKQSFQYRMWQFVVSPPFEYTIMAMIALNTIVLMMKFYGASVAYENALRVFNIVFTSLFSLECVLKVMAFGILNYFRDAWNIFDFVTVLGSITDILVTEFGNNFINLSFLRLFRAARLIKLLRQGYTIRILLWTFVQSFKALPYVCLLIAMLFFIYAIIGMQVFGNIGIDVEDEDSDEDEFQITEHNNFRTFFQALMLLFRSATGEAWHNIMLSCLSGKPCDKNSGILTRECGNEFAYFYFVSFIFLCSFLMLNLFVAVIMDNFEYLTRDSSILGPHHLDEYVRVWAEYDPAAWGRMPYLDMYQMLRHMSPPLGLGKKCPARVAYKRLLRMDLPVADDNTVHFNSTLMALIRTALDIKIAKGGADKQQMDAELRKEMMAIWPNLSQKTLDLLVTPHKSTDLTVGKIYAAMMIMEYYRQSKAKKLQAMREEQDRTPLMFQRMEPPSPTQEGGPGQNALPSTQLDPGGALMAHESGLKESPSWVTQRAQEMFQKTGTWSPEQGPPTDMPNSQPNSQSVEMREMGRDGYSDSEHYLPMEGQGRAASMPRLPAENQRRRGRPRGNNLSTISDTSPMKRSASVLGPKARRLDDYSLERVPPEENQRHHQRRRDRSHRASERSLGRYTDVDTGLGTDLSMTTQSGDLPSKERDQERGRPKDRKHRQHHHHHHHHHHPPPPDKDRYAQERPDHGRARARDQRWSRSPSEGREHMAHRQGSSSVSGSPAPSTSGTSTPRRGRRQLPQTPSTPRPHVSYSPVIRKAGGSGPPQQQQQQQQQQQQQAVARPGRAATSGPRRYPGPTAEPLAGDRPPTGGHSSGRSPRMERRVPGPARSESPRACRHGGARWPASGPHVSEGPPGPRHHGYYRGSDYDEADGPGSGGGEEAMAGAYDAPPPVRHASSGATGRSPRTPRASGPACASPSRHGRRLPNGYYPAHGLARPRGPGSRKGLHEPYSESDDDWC

Substance | Kd [1] [nM] | Kd [2] [nM] | Kd [3] [nM]
ω-agatoxin IVA (from UniProt P30288) | 2 | 100 | 
ω-agatoxin IVB (from UniProt P37045) |  |  | 3
